Paper PMC4966588

Target: gp41 of HIV-1 NL4.3 viral particles (HIV-1 NL4.3)

| Molecule | cytosolic viral p24 (ELISA) in primary CD4+ T cells pretreated with AAT and infected with HIV-1 NL4.3 Gag-iGFP [% decrease] | entry of HIV-1 NL4.3 Gag-iGFP into primary CD4+ T cells pretreated with AAT (0.5 g/L), GFP by flow cytometry, against untreated cells [% decrease] | cytosolic viral p24 (ELISA) in primary CD4+ T cells pretreated with C and infected with HIV-1 NL4.3 Gag-iGFP, against cells pretreated with AAT [% decrease] | entry of HIV-1 NL4.3 Gag-iGFP into primary CD4+ T cells pretreated with C (0.05 g/L), GFP by flow cytometry, against cells pretreated with AAT [% decrease] |
| --- | --- | --- | --- | --- |
| alpha-1-antitrypsin (from UniProt P01009 25-418) (natural protein) | > 60 | > 60 | – | – |
| KGTEAAGAMFLEAIPMSIPPEVKFNKPFVFLMIDQNTKSP [synthesized C-terminus fragment of AAT] | – | – | > 50 | > 50 |
